Data as given in patent US20040236073A1 (MEDICAL RESEARCH COUNCIL, published 2004).
Positions count from the first letter of the chain named. Names may count otherwise.

B1: wild-type NK1 fragment of HGF/SF (amino acids 28-210) (ligand)
chain: YAEGQRKRRNTIHEFKKSAKTTLIKIDPALKIKTKKVNTADQCANRCTRNKGLPFTCKAFVFDKARKQCLWFPFNSMSSGVKKEFGHEFDLYENKDYIRNCIIGKGRSYKGTVSITKSGIKCQPWSSMIPHEHSFLPSSYRGKDLQENYCRNPRGEEGGPWCFTSNPEVRYEVCDIPQCSEVE
notes: Expressed in P. pastoris; Forms a head-to-tail dimer in the crystals and a heparin-dependent dimer in solution; also called wt-NK1; wt NK1
B2: NK1 mutant 1K1 (K132E:R134E) (ligand)
chain: B1 chain with K105E, R107E
notes: K domain reverse-charge mutant of NK1
B3: NK1 mutant HP11 (R73E:R76E) (ligand)
chain: B1 chain with R46E, R49E
notes: N domain reverse-charge mutant of NK1; Expressed in P. pastoris
B4: NK1 mutant 1K2 (K170E:R181E) (ligand)
chain: B1 chain with K143E, R154E
notes: as for B2

How the values were obtained:
[1] = target: the molecule itself; test: X-ray crystal structure of the NK1-heparin complex, crystal type A; self-association
[2] = target: the molecule itself; test: BS3 cross-linking with western blot, and gel filtration, with equimolar 14-mer heparin; self-association
Protocol: (§1) This was carried out by gel filtration chromatography and cross-linking experiments. For gel filtration, wt- or mutant NK1 (0.5 mg/ml) were incubated for 2 hours in the presence or absence of equimolar concentration of 14-mer heparin in phosphate buffered saline (PBS) adjusted to 300 mM NaCl. Samples were then loaded onto an HR30 Superdex 200 column (Ammersham Pharmacia Biotech) and eluted at 0.5 ml/min.
(§2) For cross-linking, 10 μl of wt- or mutant-NK1 (0.1 mg/ml) were incubated in the absence or presence of an equimolar concentration of 14-mer heparin in PBS. After 2 hours incubation at room temperature, 1 μl of crosslinker (BS³, Pierce) was added at 100 fold molar excess, the reaction was continued for 30 minutes and then quenched with 1 μl of 1M Tris-Cl, pH 7.4. Reaction products were loaded onto 15% SDS-polyacrylamide gels and blotted onto a nitrocellulose membrane (Schleicher & Schuell). […] HRP activity was detected after 3 further washes in PBS+0.2% Tween 20 using a chemiluminescent substrate (Pierce).
(§3) Cross-linking (Schwall et al., 1996) and gel filtration (Chirgadze et al., 1999) experiments were employed first in order to characterize heparin-mediated oligomerization of wt NK1 in solution. […] Cross-linked proteins were analyzed by western blotting and detected with an anti-HGF/SF polyclonal antibody (1W53). […]

[3] = target: the molecule itself; test: BS3 cross-linking with western blot, and gel filtration (Superdex 200), with equimolar 14-mer heparin; self-association
Protocol: as §1, §2, §3

Row | Protein | binding result [2] | also measured
1 | B1 | – | binding result [1]: binds
2 | B2 | binds | –
3 | B3 | – | binding result [3]: no binding
4 | B4 | binds | –
